The values that follow come from patent US20230016112A1 (IBIO, published 2023).

Sequences and labels used below:
T1: full-length CD25 (human, UniProt P01589 22-186, limits assumed)
T1 construct: The assays used soluble 'full-length CD25'; also called Hu CD25; IL-2 receptor alpha chain
T1 chain: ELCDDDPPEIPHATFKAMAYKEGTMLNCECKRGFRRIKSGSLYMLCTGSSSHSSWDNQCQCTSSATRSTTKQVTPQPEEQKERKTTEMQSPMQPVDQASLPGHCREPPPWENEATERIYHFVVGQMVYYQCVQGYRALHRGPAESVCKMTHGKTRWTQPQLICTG

B1: YU392-H04 (antibody)
scFv: QVQLQESGPGLVKPSGTLSLTCAVSGGSISSSNWWSWVRQPPGKGLEWIGEIYHSGSTNYNPSLKSRVTISVDKSKNQFSLKLSSVTAADTAVYYCARVNYGDYDWYFDLWGRGTLVTVSSQPVLTQPPSASGTPGQRVTISCSGSSSNIGSNFVTWYQQLPGTAPKLLIYSNNQRPSGVSDRFSASKSGTSASLAISRLQSQDEAEYYCAAWDDSLRSYVFGSGTKVTVV
notes: Tested as full-length human IgG1
B2: YU403-G05 (antibody)
scFv: PSGDLSLTCDVSGGSISRSNWWIWVRQPPGKGLEWIGEIYHTGSTNYNPSLKRRVTISVDKSKNQFSLNLSSVTAADTAVYYCARGKGSYAFDIWGLGTMVTVSSVLTQPHSVSESPGKTVTISCTGSGGNIARNYVQWYQHRPGRAPSTVIYEDDRRPSGVPDRFSGSTDISSNSASLTISGLKTEDEADYYCQSYDGNNHMVFGGGTRVTVL
notes: as for B1
B3: YU398-A11 (antibody)
scFv: PGRSLRLSCAASGFTFSSYGMHWVRQAPGKGLEWVAVISYDGSNKYYADSVKGRFTISRDNSKNTLYLQMNSLRAEDTAVYYCAKGQGDGMDVWGQGTTVTVSSYELTQPPSASGTPGQRVTISCSGSSSNVGSRTVSWFQQLPGTAPKLLIYSNNLRPSGVPDRFSGSKSGTSASLAISGLQSEDEADYYCAAWDDSLIGHVFGTGTKVTVV
notes: as for B1
B4: YU392-B11 (antibody)
scFv: PGATVKISCKVSGYTFTDYYMHWVQQAPGKGLEWMGLVDPEDGETIYAEKFQGRVTITADTSTDTAYMELSSLRSEDTAVYYCAVEGGRAPGTYYYDSSGLAYWGQGTLVTVSSQAGLTQPPSASGTPGQRVTISCSGSSSNIGSNYVYWYQQLPGTAPKLLIYSNNQRPSGVPDRFSGSKSGTSASLAISGLRSEDEADYYCATWDDSLSGVVFGGGTKLTVL
notes: as for B1
B5: YU389-A03 (antibody)
scFv: PSQTLSLTCTVSGGSISSGGYYWSWIRQHPGKGLEWIGYIYYSGSTYYNPSLKSRVTISVDTSKNQFSLKLSSVTAADTAVYYCARGNLWSGYYFWGQGTLVTVSSQSVLTQPPSVSAAPGQKVTISCSGSSSNIGNNFVSWYQQVPGTAPKLLTYDSTKRPAGIPDRFSGSKSGTSATLEIAGLQTGDEADYYCGSWDTNLSGYVFGTGTKVTVL
notes: as for B1
B6: YU392-E06 (antibody)
scFv: QLQLQESGPGLVKPSGTLSLTCAVSGGSISSSNWWSWVRQPPGKGLEWIGEIYHSGSTNYNPSLKSRVTISVDKSKNQFSLKLSSVTAADTAVYYCARERTHYYYGMDIWGQGTTVTVSSQSVLTQPPSTSGTPGQRVTISCSGSSSNIGSNTVNWYHQLPGTAPRLLIYSNNQRPSGVPDRFSGSKSGTSASLALSGLQSEDEGDYYCAAWDDSLNGYVFGTGTKVTVL
notes: as for B1
B7: YU401-G07 (antibody)
scFv: LGRSLRLSCAASGFTFSSYGMHWVRQAPGKGLEWVAVISYDGSNKYYADSVKGRFTISRDNSKNTLYLQMNSLRAEDTAVYYCAKGDVNYGMDVWGQGTTVTVSSSYVLTQPPSVSVAPGQTARISCGGSNIGSKTVNWYRKKAGQAPVLVVYDGRDRPSGIPERFSGSNSGNAATLIISRVEVGDEADYYCQVWDTSGDLHWAFGGGTKLTVL
notes: as for B1
B8: YU397-D01 (antibody)
scFv: PSGTLSLTCAVSGGSISSSNWWSWVRQPPGKGLEWIGEIYHSGSTNYNPSLKSRVTISVDKSKNQFSLKLSSVTAADTAVYYCARARGGRYFDYWGQGTLVTVSSDIVLTQSPSFLSASVGDRVTITCRASQGISTYLAWYQQKPGTAPKVLMYAASTLHSGVPSRFSGSGSGTEFTLTISSLQPEDFAIYYCQQLNGYPTTFGGGTRVEIK
notes: as for B1
B9: YU390-B12 (antibody)
scFv: PGRSLRLSCAASGFTFSSYGMHWVRQAPGKGLEWVAVISYDGSNKYYADSVKGRFTISRDNSKNTLYLQMNSLRAEDTAVYYCAKELLEGAFDIWGQGTMVTVSSSYVLTQPPSLSVAPGQTARITCGGDNIETKSVHWYQQRPGQAPVLVVYDDDDRPSGIPERFSGSNSGNTATLTISRVEAGDEADYYCQVWDSSSGHREVFGGGTKLTVL
notes: as for B1
B10: YU400-B07 (antibody)
scFv: PGRSLRLSCAASGFTFSSYGMHWVRQAPGKGLEWVAVISYDGSNKYYADSVKGRFTISRDNSKNTLYLQMNSLRAEDTAVYYCAKGDVNYGMDVWGQGTTVTVSSSYVLTQPPSVSVAPGKTARITCGGNNIGSKSVHWYQQKPGQAPVLVVYDDTDRPSGIPERFSGSNSGNTATLTISRVEAGDEADYYCQVWDSSSDLLWVFGGGTKLAVL
notes: as for B1
B11: YU401-B01 (antibody)
scFv: PGSSVKVSCKASGGTFSSYAISWVRQAPGQGLEWMGGIIPIFGTANYAQKFQGRVTITADESTSTAYMELSSLRSEDTAVYYCAREMYYYYGMDVWGQGTTVTVSSDIVMTQSPSSLSASVGDRVTITCRASQSIITYLNWYQQKPGKVPKLLIYAASSLQSGVPSRFSGSGSGTDFTLTISSLQPEDFATYYCQQSYSTPPTFGQGTKLEIK
notes: as for B1
B12: YU392-G09 (antibody)
scFv: QVQLVQSGAEVKKPGSSVKVSCKASGGTFSSYAISWVRQAPGQGLEWMGGIIPIFGTANYAQKFQGRVTITADESTSTAYMELSSLRSEDTAVYYCARDGAGNYDILTGDRSEDYYYYYGMDVWGQGTTVTVSSSYELTQPPSASGAPGQRVSISCSGGYSNIGSNTVNWYQQLPGAAPKFLIYSDNQRPSGVPDRFSGSKSGTSASLAISGLQSEDEADYYCATWDDSLNGPVFGGGTKLTVL
notes: as for B1
B13: YU392-A09 (antibody)
scFv: PGATVKISCKVSGYTFTDYYMHWVQQAPGKGLEWMGLVDPEDGETIYAEKFQGRVTITADTSTDTAYMELSSLRSEDTAVYYCATEGRYGMDVWGQGTTVTVSSQAVLTQPPSVSGTPGQRVTISCSGNNFNIGNNLVYWYQQLPGTAPKLLIYANDERPSGVPDRFSGSKSGTSASLAISGLRSEDDADYYCATWDDSLSGVVFGGGTKLTAL
notes: as for B1
B14: YU392-E05 (antibody)
scFv: QVQLQESGPGLVKPSGTLSLTCTVSGGSISSSNWWSWVRQPPGKGLEWIGEIYHSGSTNYNPSLKSRVTISVDKSKNQFSLKLSSVTAADTAVYYCARGVIAAAGTYFDYWGQGTLVTVSSQAVLTQPPSASGTPGQRVTISCSGSRPNVASNSVNWYQQFPGTAPRLLIYSDNQRPSGVPDRFSGSKSGTSASLAISGLQFEDEADYYCETWDDSLRGVVFGGGTKVTVL
notes: as for B1
B15: YU392-G12 (antibody)
scFv: QVQLQESGSGLVKPSQTLSLTCAVSGGSISSGGYSWSWIRQPPGKGLEWIGYIYHSGSTYYNPSLKSRVTISVDRSKNQFSLKLSSVTAADTAVYYCARAGYYYGMDVWGQGTTVTVSSDIVMTQTPSSLSASVGDRVAITCQASRNIWSYVNWYQQKPGEAPRLLIYGASTLQRGVPSRFSGSGSGTGFTLTINSLQPEDFATYFCQQSHSTPITFGGGTRVDIK
notes: as for B1
B16: YU400-D09 (antibody)
scFv: PGSSVKVSCKASGGTFSSYAISWVRQAPGQGLEWMGGIIPIFGTANYAQKFQGRVTITADESTSTAYMELSSLRSEDTAVYYCARDFNPFSITIFEMDVWGQGTTVTVSSQSVLTQPPSVSAAPGQKVTISCSGSSSNIGNNYVSWYQQLPGTAPKLLIYDNNKRPSGIPDRFSGSKSGTSATLGITGLQTGDEADYYCGTWDSSLSALVFGGGTKLTVL
notes: as for B1
B17: YU392-H02 (antibody)
scFv: QLQLQESGPGLVNLSQTLSLTCTVSGGSISSGGYYWSWIRQHPGKGLEWIGYIYYSGSTYYNPSLKSRVTISVDTSKNQFSLKLSSVTAADTAVYYCARDSSSGPYGMDVWGQGTTVTVSSQSVLTQPPSVSVAPGQTARVTCGGSNIGSQSVHWYQQKPGQAPVLVVYDDYDRPSGIPERFSGSNSGNTATLTITRVDAGDEADYYCQIWDSSSAHVVFGGGTKLTVL
notes: as for B1

In the assay the target is T1, full-length CD25. In words: Octet biolayer interferometry, human IgG1 against CD25. Background: Biolayer interferometry detects binding as a change in optical thickness at a sensor tip.
By Kd is commonly meant a measure of binding affinity in units of concentration. A higher Kd goes with weaker binding. As to B1, the dissociation constant Kd was 9.1 nM.
As to B2, binding was characterised by a dissociation constant (Kd) of 31.9 nM.
The molecule B3 had an equilibrium dissociation constant (Kd) of 12.1 nM.
The molecule B4 gave a Kd of 65.6 nM.
In turn, B5 had a Kd of 9.55 nM.
In turn, B6 registered a Kd of 8.3 nM.
For B7, the Kd is 15.3 nM.
As to B8, binding was characterised by a dissociation constant (Kd) of 3.86 nM. This Kd lies about 4-fold lower than the previous one.
On to B9, for which binding was put at a Kd of 13.7 nM. Against the preceding molecule, the Kd is about 3.5-fold higher.
Turning to B10, the dissociation constant (Kd) stood at 57.8 nM.
The molecule B11 came in with a Kd of 70.4 nM.
As for B12, the figure is 20.2 nM; as for B13, 12.4 nM; as for B14, 16.1 nM.
Take B15: the Kd was 25.7 nM.
As for B16, the figure is 54.5 nM.
B17: the Kd amounted to 10.6 nM. This Kd is about 5.1-fold lower than that of the molecule before.
